Patent US20260218147, “CAS ENDONUCLEASE AND GUIDE RNA VARIANTS WITH IMPROVED EFFICIENCY” (PIONEER HI-BRED INTERNATIONAL, INC., published 2026)
Substitutions are numbered along the chain they refer to.

B1: sgRNA ADE2-CR1 ; ADE2-CR1 target (ssRNA ; dsDNA)
RNA: AUUUACUCUGUUUCGCGCGCCAGGGCAGUUAGGUGCCCUAAAAGAGCGAAGUGGCCGAAAGGAAAGGCUAACGCUUCUCUAACGCUACGGCGACCUUGGCGAAAUGCCAUCAAUACCACGCGGCCCGAAAGGGUUCGCGCGAAACUGAGUAAUGAAAGUCGCAUCUUGCGUAAGCGCGUGGAUUGAAACCUACACUAAAGAAUCUUCAA
DNA 1: GTTCCTACACTAAAGAATCTTCAA
DNA 2: TTGAAGATTCTTTAGTGTAGGAAC
B2: sgRNA MS26 (recognition domain SEQ 327) ; MS26 target (ssRNA ; dsDNA)
RNA: GUUUCGCGCGCCAGGGCAGUUAGGUGCCCUAAAAGAGCGAAGUGGCCGAAAGGAAAGGCUAACGCUUCUCUAACGCUACGGCGACCUUGGCGAAAUGCCAUCAAUACCACGCGGCCCGAAAGGGUUCGCGCGAAACGAAAUAAGCGCGUGGAUUGAAACAAGUUCACGGCGUUCCAGGC
DNA 1: GTTCAAGTTCACGGCGTTCCAGGC
DNA 2: GCCTGGAACGCCGTGAACTTGAAC

Tests used:
[1] = target: T1, Cas-alpha 10 variant T34E+M45S+F54D+G81E+G470D (synthetic construct, UniProt P0DW62 SEQ:1-497); test: cell_activity; PAM GTTC; 37 C overnight; conditions: tags: SV40 NLS; chain copies: 2
T1 chain: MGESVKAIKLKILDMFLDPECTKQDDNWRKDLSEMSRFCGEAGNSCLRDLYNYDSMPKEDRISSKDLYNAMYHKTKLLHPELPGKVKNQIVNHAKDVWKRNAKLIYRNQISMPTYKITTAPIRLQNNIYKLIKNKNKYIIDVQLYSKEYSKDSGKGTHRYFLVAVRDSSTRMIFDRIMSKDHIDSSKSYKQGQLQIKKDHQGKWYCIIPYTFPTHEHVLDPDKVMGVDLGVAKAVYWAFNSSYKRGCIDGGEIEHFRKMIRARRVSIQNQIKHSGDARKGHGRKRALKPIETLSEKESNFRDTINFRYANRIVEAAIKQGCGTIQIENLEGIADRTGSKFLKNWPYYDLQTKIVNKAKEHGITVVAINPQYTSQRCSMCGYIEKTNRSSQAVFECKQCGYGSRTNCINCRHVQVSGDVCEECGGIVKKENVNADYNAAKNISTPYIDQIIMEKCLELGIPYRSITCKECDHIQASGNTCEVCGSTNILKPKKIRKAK
Procedure: (§1) K85Q was also predicted with AlphaFold to be involved in PAM recognition. Therefore, it was converted back to a K residue for M45S+F54D+G81E+K85Q+G470D (SEQ ID NO: 50) and T34E+M45S+F54D+G81E+K85Q+G470D (SEQ ID NO: 54) and re-tested using two ADE2 target sites. Testing was performed as described above and fold improvement in targeted DNA cleavage was calculated as described above, relative to the original protein.

[2] = target: T2, Cas-alpha 10 variant T34E+M45S+F54D+G81E+K85Q+G470D (synthetic construct, UniProt P0DW62 SEQ:1-497); test: cell_activity; PAM GTTC; 37 C overnight; conditions: tags: SV40 NLS; chain copies: 2
T2 chain: T1 chain with K85Q
Procedure: as §1

[3] = target: T3, Cas-alpha 10 variant M45S+F54D+G81E+K85Q+G470D (synthetic construct, UniProt P0DW62 SEQ:1-497); test: cell_activity; PAM GTTC; 37 C overnight; conditions: tags: SV40 NLS; chain copies: 2
T3 chain: T1 chain with E34T, K85Q
Procedure: as §1

[4] = target: T4, Cas-alpha 10 variant M45S+F54D+G81E+G470D (synthetic construct, UniProt P0DW62 SEQ:1-497); test: cell_activity; PAM GTTC; 37 C overnight; conditions: tags: SV40 NLS
T4 chain: T1 chain with E34T
Procedure: as §1

[5] = target: T5, Cas-alpha 10 base variant (synthetic construct, UniProt P0DW62 SEQ:1-497); test: cell_activity; PAM GTTC; 37 C overnight; conditions: tags: SV40 NLS; chain copies: 2
T5 chain: T1 chain with E34T, S45M, D54F, E81G, D470G
Procedure: as §1

[6] = target: T6, Cas-alpha 10 variant G81E (synthetic construct, UniProt P0DW62 SEQ:1-497); test: cell_activity; PAM GTTC; maize, 3x4 hr 45 C; conditions: tags: SV40 NLS; chain copies: 2
T6 chain: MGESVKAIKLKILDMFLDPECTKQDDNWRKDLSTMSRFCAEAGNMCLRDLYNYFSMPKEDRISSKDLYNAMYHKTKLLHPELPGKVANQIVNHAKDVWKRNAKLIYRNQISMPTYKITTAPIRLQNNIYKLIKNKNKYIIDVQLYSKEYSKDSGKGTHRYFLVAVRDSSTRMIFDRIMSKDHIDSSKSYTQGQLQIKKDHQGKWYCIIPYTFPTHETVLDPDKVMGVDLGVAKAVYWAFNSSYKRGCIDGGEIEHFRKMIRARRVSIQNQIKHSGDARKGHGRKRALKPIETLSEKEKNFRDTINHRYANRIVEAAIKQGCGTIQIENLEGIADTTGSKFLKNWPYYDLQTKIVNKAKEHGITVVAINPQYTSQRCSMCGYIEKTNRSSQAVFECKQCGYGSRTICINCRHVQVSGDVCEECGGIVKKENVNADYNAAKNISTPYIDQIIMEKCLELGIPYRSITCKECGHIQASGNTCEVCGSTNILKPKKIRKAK
Procedure: (§2) The resulting T-DNA was then placed into LBA4404, a thymine auxotrophic strain of Agrobacterium tumefaciens, containing Vir9, a separate plasmid encoding the Bo542 virulence genes (US20170121722A1 and WO 2017/078836). The resulting Agrobacterium strain was then used to transform nine-to-ten-day old immature maize embryos (approximately 2 mm in size) by submersion in 700A liquid media containing the strain at an optical density (OD) of 0.4 to 2.0 at 550 nm for 5 min. and then removed from the media and placed on solid co-cultivation medium overnight at 21° C. in the dark. Following T-DNA delivery, embryos are transferred to resting media, 13266R, and grown in the dark at 28° C. for 5-7 days. Next, coleoptiles were removed, and embryos transferred to selection media for 11-16 days and kept in the dark at 28° C. They were then moved to maturation media and incubated for 14-25 days in the dark at 28° C. and then subject to light for 2-5 days. Next, they were moved to rooting media and incubated at 26-28° C. under light for 14-28 days refreshing media as needed. To examine Cas-alpha nuclease-guide RNA activity, transformed tissue was incubated at 28° C., standard for Agrobacterium transformation, or at a range of temperatures lower or higher than 28° C.
(§3) In a third study, the efficiency of targeted mutagenesis of Cas-alpha 10 endonuclease variants, SEQ ID NOs:14, 48, 60, and 157, were compared when tested with two sgRNA recognition domains, SEQ ID NOs:61 and 327, at two target sites, MS26 and D8. Experiments were carried-out in Zea mays using Agrobacterium (Agro) transformation as described in Example 2. Two temperature regimens were performed. The first subjected Agro transformed embryos (once per day) to 45° C. for 4 hrs on days 3, 4, and 5 (3×4 hr 45° C.) after infection and the second to a continuous incubation at 37° C. on days 1-3 (1-3d 37° C.) following infection. For both regimens, embryos were placed at 28° C. before and after temperature treatment. […]

[7] = target: T7, Cas-alpha 10 wild type (Cas12f) (Syntrophomonas palmitatica, UniProt P0DW62 SEQ:1-497); test: cell_activity; PAM GTTC; maize, 3x4 hr 45 C; conditions: tags: SV40 NLS; chain copies: 2
T7 sequence: T6 chain
Procedure: as §2, §3

| Binder | activity [1] | activity [2] | activity [3] | activity [4] | activity [5] | activity [6] | activity [7] |
| --- | --- | --- | --- | --- | --- | --- | --- |
| B1 | 64.5 % red yeast | 7.48 % red yeast | 5.19 % red yeast | 45.4 % red yeast | 2.76 % red yeast |  |  |
| B2 |  |  |  |  |  | 15.5 % targeted mutagenesis | 4.67 % targeted mutagenesis |
